According to patent US20240166702A1 (published 2024):

Biological target: EGFR kinase domain (UniProt P00533 696-1022, fluorescent dye attached through the His-tag)
Assay: MST

B1: Sorting Nexin 1 (SNX1) Bar domain (other)
chain: MNESDIWFEEKLQEVECEEQRLRKLHAVVETLVNHRKELALNTAQFAKSLAMLGSSEDNTALSRALSQLAEVEEKIEQLHQEQANNDFFLLAELLSDYIRLLAIVRAAFDQRMKTWQRWQDAQATLQKKREAEARLLWANKPDKLQQAKDEILEWESRVTQYERDFERISTVVRKEVIRFEKEKSKDFKNHVIKYLETLLYSQQQLAKYWEAFLPEAKAIS
How did the Kd turn out when B1 was run?
Its Kd is 2900 nM.
